Target: ARHGAP24, Q8N264-1
Sequence (Q8N264 whole entry): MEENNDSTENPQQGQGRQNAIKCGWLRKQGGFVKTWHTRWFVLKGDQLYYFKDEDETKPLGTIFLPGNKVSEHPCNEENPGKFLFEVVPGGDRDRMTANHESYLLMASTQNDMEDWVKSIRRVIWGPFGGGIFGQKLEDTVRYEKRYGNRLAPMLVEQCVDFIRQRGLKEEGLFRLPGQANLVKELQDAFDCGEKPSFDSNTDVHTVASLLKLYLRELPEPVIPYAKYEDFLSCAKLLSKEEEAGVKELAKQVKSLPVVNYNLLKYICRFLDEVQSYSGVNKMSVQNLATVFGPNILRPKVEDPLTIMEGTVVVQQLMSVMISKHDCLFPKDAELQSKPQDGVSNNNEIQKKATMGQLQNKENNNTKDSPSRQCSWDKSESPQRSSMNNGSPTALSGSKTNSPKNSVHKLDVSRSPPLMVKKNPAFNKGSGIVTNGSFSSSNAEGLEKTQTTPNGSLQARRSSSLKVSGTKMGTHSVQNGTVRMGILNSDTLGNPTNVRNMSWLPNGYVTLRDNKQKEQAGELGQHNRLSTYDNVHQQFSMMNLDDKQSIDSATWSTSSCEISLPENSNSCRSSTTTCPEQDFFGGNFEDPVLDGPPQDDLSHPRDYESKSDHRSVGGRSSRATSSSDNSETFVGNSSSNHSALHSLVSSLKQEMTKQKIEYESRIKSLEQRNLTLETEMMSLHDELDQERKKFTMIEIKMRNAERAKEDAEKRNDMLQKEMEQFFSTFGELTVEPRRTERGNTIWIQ

effect of a mutation on the interaction: disrupting interaction
Substance: Filamin-A (Homo sapiens), P21333 M2474E

From IntAct's records for PubMed 21926999
